From patent US20250099622A1, “COMPOSITIONS AND METHODS FOR EXPRESSING THERAPEUTICS” (priority 2022, published 2025)

Experiments:
[1] = test system: retinal ganglion cells (RGC); experiment: NMDA excitotoxicity mouse model: RGC count by retinal Flatmount; format: in vivo, C57BL/6); conditions: AAV 4E+8 vg/eye IVT 28 days prior to NMDA
Description: This study was for evaluating the effect of adeno-associated viral (AAV) vectors on retinal ganglion cell protection following damage caused via N-methyl-D-aspartate (NMDA) administration in the mouse. […] Groups 7 and 8 were added to test a higher concentration of MK-801. […] This study was conducted in wild type mice (Mus musculus, C57BL/6).
300 μL of the 5 mM NMDA stock was combined with 300 μL of sterile PBS and 1 μL as injected on Day 0 for a final concentration of 2.5 mM NMDA.
300 μL of the 5 mM NMDA stock as combined with 300 μL of sterile-filtered MK-801 and 1 μL was injected on Day 0 for a final concentration of 2.5 mM NMDA/100 μM MK-801.
300 μL of the 5 mM NMDA stock was combined with 300 μL of sterile PBS and 1 μL was injected on Day 0 for a final concentration of 2.5 mM NMDA.
On Day −28 or Day 0 based on the experimental design, mice were given buprenorphine 0.01-0.05 mg/kg subcutaneously (SQ). Animals were then tranquilized for the intravitreal injections with ketamine/xylazine or inhaled isoflurane and one drop of 0.5% proparacaine HCl was applied to both eyes. The conjunctiva was gently grasped with Dumont #4 forceps, and the injection was made using a 33 G needle and a Hamilton syringe. After dispensing the syringe contents, the syringe needle was slowly withdrawn. Following the injection procedure, 1 drop of Ofloxacin ophthalmic solution was applied topically to the ocular surface with eye lube.
Eyes were enucleated and immediately fixed in 4% paraformaldehyde in phosphate-buffered saline (PBS) and stored overnight at 4° C. The following day, the eyes were transferred to cold immunocytochemistry (ICC) buffer (PBS containing 0.5% BSA and 0.2% Tween 20) until processing. Using a dissecting microscope, the eye was carefully trimmed of extraneous tissue at the limbus and, using fine curved scissors, the anterior chamber was removed. Retinas in the eye cup were rinsed with cold ICC buffer. Eye cups were placed in cold ICC buffer containing 1/100 rat anti-CNP36 (Groups 3-6 only; resuspended at 0.5 mg/mL in PBS) for 3 hours at 4° C. Eye cups were then washed extensively and stained with 1/200 donkey anti-rat Cy3 and 1/1,000 DAPI for 2-3 hours at 4° C. Groups 1 and 2 were stained with 1/500 TUJ-1 and 1/1000 DAPI, while Groups 7 and 8 were incubated with 1/1,000 DAPI alone. Eye cups were washed extensively but gently with cold ICC buffer. Using fine curved scissors and an eyelash knife, the retina was detached from the optic nerve head and removed from the RPE/choroid. Radial cuts were then made toward the center and retinas were flat mounted, covered, and sealed. 2D fluorescent microscopy images were acquired using an Olympus Bx63 upright fluorescent microscope. […] Images at 20× were acquired in 4 quadrants and a central 248.1×325.7 μm region was analyzed for RGC counts using Olympus cellSens and ImageJ software.
Groups 1 and 2 were stained with DAPI and TUJ-1 and images were captured at 20× (FIG. 10A). RGCs were counted in four quadrants, and cells/mm2 were averaged across each group.
Groups 3-8 were stained for DAPI and four images were captured for each retina at 20× approximately 600 μm from the optic nerve head. RGCs were counted in a central 248.1×325.7 μm region and cells/mm2 were averaged over each group (FIG. 10C).
The statistical analyses were performed on the Group 3-8 RGC data (one-way ANOVA followed by multiple comparisons using the Dunnett statistical hypothesis comparison).

Human NPR-B = molecular target: T1, Human NPR-B (Homo sapiens, UniProt P20594); experiment: Biacore SPR kinetic affinity binding to immobilized NPR-B; conditions: Table 32 summary of affinity
T1 construct: purchased R&D system
T1 sequence (P20594 23-458 limits assumed): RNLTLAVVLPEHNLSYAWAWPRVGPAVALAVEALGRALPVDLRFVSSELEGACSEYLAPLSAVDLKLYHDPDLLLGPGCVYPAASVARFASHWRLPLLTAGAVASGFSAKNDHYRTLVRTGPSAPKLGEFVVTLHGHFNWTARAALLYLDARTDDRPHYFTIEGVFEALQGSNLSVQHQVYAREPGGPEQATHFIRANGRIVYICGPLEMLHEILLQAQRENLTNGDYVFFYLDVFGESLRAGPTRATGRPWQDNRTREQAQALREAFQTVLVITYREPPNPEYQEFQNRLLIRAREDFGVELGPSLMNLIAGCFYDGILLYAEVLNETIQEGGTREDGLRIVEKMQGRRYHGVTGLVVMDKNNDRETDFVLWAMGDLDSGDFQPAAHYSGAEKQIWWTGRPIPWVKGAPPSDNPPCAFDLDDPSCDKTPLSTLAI
Description: The biological function of these purified protein was assayed for their stimulation of production of cGMP, using NPR-B receptor positive cell line, NIH/3T3 and NPR-B negative cell line HEK293 cells. The determination of cGMP was assay by ELISA using commercial CNP as standard curves. […] Surface preparation. NBR-B was immobilized at different levels in three flow cells via standard amine coupling, leaving Fc 1 unmodified to serve as a reference. All surface plasmon resonance (SPR) analysis was performed on a BIAcore 3000 system using series CM5 sensor chips. Data processing and analysis were performed using BIAevaluation software. All sensorgrams were double referenced by subtracting the response on a reference flow cell and a blank sample. Human NPR-B (R&D system) was covalently attached to a CM5 chip via amine coupling. A surface density of 6600 RU was used for measurements with natriuretic peptides Sequential injections of CNP (0.5-8 nM) were performed at a flow rate of […] (300 s for each), followed by a dissociation time of 900 s. […] Kinetic parameters were calculated assuming a simple 1:1 (Langmuir) binding. […] All SPR analysis was performed on a BIAcore 3000 system using series CM5 sensor chips. Data processing and analysis were performed using BIAevaluation software. All sensorgrams were double referenced by subtracting the response on a reference flow cell and a blank sample. Human NPR-B (R&D system) was covalently attached to a CM5 chip via amine coupling. A surface density of 3100 RU was used for measurements with natriuretic peptides Sequential injections of AMI263 (FC4-CNP) (0.125-2 nM) were performed at a flow rate of […] (300 s for each), followed by a dissociation time of 900 s. […] Kinetic parameters were calculated assuming a simple 1:1 (Langmuir) binding. […] All SPR analysis was performed on a BIAcore 3000 system using series CM5 sensor chips. Data processing and analysis were performed using BIAevaluation software. All sensorgrams were double referenced by subtracting the response on a reference flow cell and a blank sample. Human NPR-B (R&D system) was covalently attached to a CM5 chip via amine coupling. […] Kinetic parameters were calculated assuming a simple 1:1 (Langmuir) binding. […] All SPR analysis was performed on a BIAcore 3000 system using series CM5 sensor chips. Data processing and analysis were performed using BIAevaluation software. All sensorgrams were double referenced by subtracting the response on a reference flow cell and a blank sample. Human NPR-B (R&D system) was covalently attached to a CM5 chip via amine coupling. A surface density of 3100 RU was used for measurements with natriuretic peptides Sequential injections of AMI263 (FC4-CNP) (0.5-300 nM) were performed at a flow rate of […] (300 s for each), followed by a dissociation time of 900 s. […] Kinetic parameters were calculated assuming a simple 1:1 (Langmuir) binding. […] All SPR analysis was performed on a BIAcore 3000 system using series CM5 sensor chips. Data processing and analysis were performed using BIAevaluation software. All sensorgrams were double referenced by subtracting the response on a reference flow cell and a blank sample. Human NPR-B (R&D system) was covalently attached to a CM5 chip via amine coupling.

[2] = NMDA mouse study: in-house CNP36-Fc ELISA of ocular (whole globe) and serum samples
Description: Animals in Groups 3-6 had terminal blood collected on Day 7. IBMX was used during blood collection to inhibit phosphodiesterase activity. […] Briefly, each syringe for cardiac puncture was pre-rinsed with a stock solution of 10 mM IBMX prior to drawing blood. All mice were sedated to a deep plane of sedation under isoflurane and euthanized via exsanguination. After each syringe was pre-rinsed with 10 mM IBMX, a 25 G needle was inserted into the heart and the animal was exsanguinated and euthanized, and blood was collected. The volume of blood collected was noted on the paperwork and the appropriate volume of IBMX was added into a 1.5 mL RNAse/DNAse-free microfuge tube. […]
Bioanalytical work and the accompanying analyses were performed at the conclusion of the study. […] Left eyes (OS) from all animals (n=8) in each group receiving the different AAV constructs were analyzed. […]
The CNP36 and CNP-Fc36 expression in ocular (whole globes) and serum samples was quantified using the commercial CNP36 ELISA kit and in-house CNP36-Fc ELISA (Example 2), respectively. […] After a 45 min incubation, plates were washed and CNP36-Fc was detected by the addition of 3,3′,5,5′-tetramethylbenzidine (TMB) substrate. The reaction was stopped by the addition of stop solution and the plate was read immediately at 450 nm along with the reference wavelength of 600 nm. […]

AMI088: purified fusion protein Fc1-(G4S)4-CNP36 (IgG1 Fc), SEQ ID NO: 133
RGC counts compared to sham AAV + NMDA group [1]: higher RGC counts | ka (Human NPR-B): 4.09E+07 | kd (Human NPR-B): 2.96E−05 | CNP36-Fc expression in serum samples ([2]; Day 7 serum): Neither CNP36-Fc nor CNP36 were expressed | stability of CNP36-Fc in ocular samples ([2]; mouse, in vivo): stable and thus quantifiable
